Measured values from US20250289894A1 (MORPHIC THERAPEUTIC, published 2025).
Where a chain is given by its changes, count along the chain named. Read-outs that look alike come from different tables or passages of the source. Blank lines part the entries; values can stand above or below the molecule they belong to.

Tests used:
[1] = molecular target: Human α7β1 (human) (UniProt Q13683); test: cell-based or functional assay
[2] = molecular target: Human α7β1 (human) (UniProt Q13683); test: cell-based or functional assay; remark: listed apart in the source
[3] = molecular target: T1, Human a7b1 Ecto (X2B) (human, UniProt P05556 21-728); test: SPR
T1 construct: extracellular domain

[4] = molecular target: T2, Human a7 Genu Calf 1-2 (human, UniProt Q13683 679-1078, limits assumed); test: SPR
T2 construct: domain: Genu Calf 1-2
T2 sequence (looked up): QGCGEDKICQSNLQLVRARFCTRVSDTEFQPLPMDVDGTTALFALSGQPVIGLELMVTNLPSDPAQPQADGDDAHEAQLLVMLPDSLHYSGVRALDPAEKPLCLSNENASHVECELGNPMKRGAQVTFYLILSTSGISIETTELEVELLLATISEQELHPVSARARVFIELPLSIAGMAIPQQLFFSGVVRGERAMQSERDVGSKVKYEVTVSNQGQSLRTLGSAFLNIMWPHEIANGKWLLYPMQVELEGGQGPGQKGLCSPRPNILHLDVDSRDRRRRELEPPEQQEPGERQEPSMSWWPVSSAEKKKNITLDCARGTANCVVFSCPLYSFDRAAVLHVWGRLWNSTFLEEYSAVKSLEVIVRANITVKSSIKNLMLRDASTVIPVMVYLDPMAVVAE

[5] = molecular target: Human α7β1 (human), Q13683; test: cell-based or functional assay
[6] = molecular target: T1, Human a7b1 Ecto (X2B); test: SPR; remark: listed apart in the source
Target sequence in this assay (P05556 21-728): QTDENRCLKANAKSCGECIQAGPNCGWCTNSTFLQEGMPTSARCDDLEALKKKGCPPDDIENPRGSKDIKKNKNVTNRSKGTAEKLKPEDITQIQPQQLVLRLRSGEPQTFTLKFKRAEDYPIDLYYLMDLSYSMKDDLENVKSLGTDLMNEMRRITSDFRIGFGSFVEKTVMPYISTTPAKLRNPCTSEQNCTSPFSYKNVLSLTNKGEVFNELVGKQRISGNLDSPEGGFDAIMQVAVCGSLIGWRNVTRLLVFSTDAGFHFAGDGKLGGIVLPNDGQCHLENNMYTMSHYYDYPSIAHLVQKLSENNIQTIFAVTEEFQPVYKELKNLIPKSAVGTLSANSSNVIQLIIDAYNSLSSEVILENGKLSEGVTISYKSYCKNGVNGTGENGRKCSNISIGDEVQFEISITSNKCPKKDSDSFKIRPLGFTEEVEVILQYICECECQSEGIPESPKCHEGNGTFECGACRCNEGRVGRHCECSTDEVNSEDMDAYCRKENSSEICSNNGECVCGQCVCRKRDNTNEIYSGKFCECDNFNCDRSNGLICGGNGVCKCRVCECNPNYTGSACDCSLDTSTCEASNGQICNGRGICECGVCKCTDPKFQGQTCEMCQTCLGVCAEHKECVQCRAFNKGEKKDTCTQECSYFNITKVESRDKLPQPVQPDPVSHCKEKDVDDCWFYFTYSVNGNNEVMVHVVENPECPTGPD

[7] = molecular target: T2, Human a7 Genu Calf 1-2; test: SPR; remark: listed apart in the source

Molecule: TS2/16 antibody
- EC50 (nM), a7b1 activation assay [1]: 2.07 nM
- EC50 (ug/mL), a7b1 activation assay [1]: 0.31 µg/mL
- Emax (% TS2/16), a7b1 activation assay [1]: 100 % TS2/16
- Emax (F.C.), a7b1 activation assay [1]: 2.34 F.C.
- EC50 (nm), a7b1 activation assay [2]: 1.97 nM
- EC50 (ug/mL), a7b1 activation assay [2]: 0.3 µg/mL
- Emax (F.C.), a7b1 activation assay [2]: 2.09 F.C.

Molecule: Isotype Control (antibody)
- EC50 (nM), ECIS, DMD-1 myoblast cells (control row) [1]: 38.1 nM
- EC50 (nM), ECIS, DMD-2 myoblast cells (control row) [1]: 8.7 nM
- EC50 (nM), ECIS, Non-DMD myoblast cells (control row) [1]: 8.1 nM
- Emax (% of RefAb1), ECIS, DMD-1 myoblast cells (control row) [1]: 59 % of RefAb1
- Emax (% of RefAb1), ECIS, DMD-2 myoblast cells (control row) [1]: 39 % of RefAb1
- Emax (% of RefAb1), ECIS, Non-DMD myoblast cells (control row) [1]: 35 % of RefAb1

B1: Ab24 (antibody, human IgG1, kappa, L234A L235A)
heavy: EVQLVQSGAEVKKPGSSVKVSCKASGYSFTRYWMHWVRQAPGQGLEWIGKIDPSDSETRLNQEFRDRATLTVDKSTSTAYMELSSLRSEDTAVYYCARGGYFGREWYYDVWGQGTLVTVSSASTKGPSVFPLAPSSKSTSGGTAALGCLVKDYFPEPVTVSWNSGALTSGVHTFPAVLQSSGLYSLSSVVTVPSSSLGTQTYICNVNHKPSNTKVDKKVEPKSCDKTHTCPPCPAPEAAGGPSVFLFPPKPKDTLMISRTPEVTCVVVDVSHEDPEVKFNWYVDGVEVHNAKTKPREEQYNSTYRVVSVLTVLHQDWLNGKEYKCKVSNKALAAPIEKTISKAKGQPREPQVYTLPPSRDELTKNQVSLTCLVKGFYPSDIAVEWESNGQPENNYKTTPPVLDSDGSFFLYSKLTVDKSRWQQGNVFSCSVLHEALHSHYTQKSLSLSPG
light: DIVMTQSPLSLPVTPGEPASISCRSSQSLVHRNGNTYLHWYLQKPGQSPQLLIYEVSNRAAGVPDRFSGSGSGTDFTLKISRVEAEDVGVYFCSQSTHVPWTFGGGTKLEIKRTVAAPSVFIFPPSDEQLKSGTASVVCLLNNFYPREAKVQWKVDNALQSGNSQESVTEQDSKDSTYSLSSTLTLSKADYEKHKVYACEVTHQGLSSPVTKSFNRGEC
- Kd [3]: 2.4 nM
- Kd [4]: 0.1 nM

B4: Ab24/Ab25 (antibody, V domains shown)
VH: EVQLVQSGAEVKKPGSSVKVSCKASGYSFTRYWMHWVRQAPGQGLEWIGKIDPSDSETRLNQEFRDRATLTVDKSTSTAYMELSSLRSEDTAVYYCARGGYFGREWYYDVWGQGTLVTVSS
VL: DIVMTQSPLSLPVTPGEPASISCRSSQSLVHRNGNTYLHWYLQKPGQSPQLLIYEVSNRAAGVPDRFSGSGSGTDFTLKISRVEAEDVGVYFCSQSTHVPWTFGGGTKLEIK
- EC50 (nM), a7b1 activation assay [5]: 1.86 nM
- EC50 (ug/mL), a7b1 activation assay [5]: 0.28 µg/mL
- Emax (% TS2/16), a7b1 activation assay [5]: 97.9 % TS2/16
- Emax (F.C.), a7b1 activation assay (9EG7 staining, human iPSC cardiomyocytes) [5]: 2.29 F.C.

B5: Ab32 (antibody, human IgG1, V domains shown)
VH: B4 VH with R104E, E105Q, Y108H
VL: B4 VL with A61S
- Kd [4]: 1.53 nM

B6: Ab30 (antibody, human IgG1, V domains shown)
VH: B4 VH with R104E, E105G, Y108H
VL: B4 VL with N58K, A61S, S94A, T97I, H98Q
- Kd [3]: 3.99 nM
- Kd [4]: 0.57 nM

B7: Ab26/Ab27 (antibody, V domains shown)
VH: B4 VH with R104E, Y108H
VL: B4 VL with A60F, A61T, S94A, H98Q, V99L, W101Y
- EC50 (nm), a7b1 activation assay [5]: 2.88 nM
- EC50 (ug/mL), a7b1 activation assay [5]: 0.43 µg/mL
- Emax (% TS2/16), a7b1 activation assay [5]: 86.3 % TS2/16
- Emax (F.C.), a7b1 activation assay [5]: 1.8 F.C.

B11: Ab38 (antibody, human IgG1, V domains shown)
VH: B4 VH with R104E, Y108N
VL: B4 VL with E55K, A61S
- Kd [4]: 4.44 nM

B14: Ab33 (antibody, human IgG1, V domains shown)
VH: B4 VH with R104V, E105G, Y108N
VL: B4 VL with A60V, A61P
- Kd [4]: 2.88 nM

B15: AB-P (antibody, V domains shown)
VH: B4 VH with E1Q, R104E, E105G, Y108F
VL: B4 VL with I2V, E55K, A60F, A61S
- Kd [3]: 63.7 nM
- Kd [4]: 16.4 nM

B16: Ab31 (antibody, human IgG1, V domains shown)
VH: B4 VH with E105Q, Y108F
VL: B4 VL with A61S
- Kd [4]: 2.53 nM

B19: Ab42 (antibody, human IgG1, V domains shown)
VH: B4 VH with E105Q, Y108F
VL: B4 VL with V56G, N58K, A60F, A61S, S94A, H98Q, V99L, W101Y
- Kd [4]: 5.7 nM

B20: Ab28 (antibody, human IgG1, lambda, L234A L235A)
heavy: EVQLVESGGGLVKPGGSLRLSCAASGFTFSSYTMNWVRQAPGKGLEWVSSISIVGNYIYYADSLKGRFTISRDNAKNSLYLQMNSLRAEDTAVYYCARRKWEHDAFDIWGQGTMVTVSSASTKGPSVFPLAPSSKSTSGGTAALGCLVKDYFPEPVTVSWNSGALTSGVHTFPAVLQSSGLYSLSSVVTVPSSSLGTQTYICNVNHKPSNTKVDKKVEPKSCDKTHTCPPCPAPEAAGGPSVFLFPPKPKDTLMISRTPEVTCVVVDVSHEDPEVKFNWYVDGVEVHNAKTKPREEQYNSTYRVVSVLTVLHQDWLNGKEYKCKVSNKALAAPIEKTISKAKGQPREPQVYTLPPSRDELTKNQVSLTCLVKGFYPSDIAVEWESNGQPENNYKTTPPVLDSDGSFFLYSKLTVDKSRWQQGNVFSCSVLHEALHSHYTQKSLSLSPG
light: SSELTQDPAVSVALGQTVRITCQGDSLRSYYASWYQQKPGQAPVLVIYGKNNRPSGIPDRFSGSSSGNTASLTITGAQAEDEADFYCTSRDNSGNHVVFGGGTKLTVLGQPKAAPSVTLFPPSSEELQANKATLVCLISDFYPGAVTVAWKADSSPVKAGVETTTPSKQSNNKYAASSYLSLTPEQWKSHKSYSCQVTHEGSTVEKTVAPTECS
- Kd [6]: 7.3 nM
- Kd [7]: 1.3 nM

B21: Ab29 (antibody, human IgG1, lambda, L234A L235A)
heavy: B20 heavy with M254Y, S256T, T258E, L430M, S436N
light: B20 light
- Kd [6]: 8.9 nM
- Kd [7]: 3.6 nM

More lines, now with the values ahead:

- Kd [3]: 3.4 nM
- Kd [4]: 0.3 nM
B2: Ab25 (antibody, human IgG1, kappa, L234A L235A)
heavy: B1 heavy with M256Y, S258T, T260E, L432M, S438N
light: B1 light
notes: same variable domains as Ab24

- Kd [3]: 2.2 nM
- Kd [4]: 0.3 nM
B3: Ab26 (antibody, human IgG1, kappa, L234A L235A, V domains shown)
VH: B4 VH with R104E, Y108H
VL: DIVMTQSPLSLPVTPGEPASISCRSSQSLVHRNGNTYLHWYLQKPGQSPQLLIYEVSNRFTGVPDRFSGSGSGTDFTLKISRVEAEDVGVYFCAQSTQLPYTFGGGTKLEIKR

- Kd [4]: 1.35 nM
B8: Ab34 (antibody, human IgG1, V domains shown)
VH: B4 VH with R104E, E105T, Y108H
VL: B4 VL with N58H, A61S

- Kd [4]: 0.94 nM
B9: Ab40 (antibody, human IgG1, V domains shown)
VH: B4 VH with R104E, Y108H
VL: B4 VL with V56G, N58K, A60F, A61S

- Kd [4]: 1.57 nM
B10: Ab39 (antibody, human IgG1, V domains shown)
VH: B4 VH with R104E, Y108H
VL: B4 VL with E55K, A61S

- Kd [3]: 3.88 nM
- Kd [4]: 0.71 nM
B12: Ab41 (antibody, human IgG1, V domains shown)
VH: B4 VH with R104E, E105Q, Y108H
VL: B4 VL with N58K, A60F, A61S, S94A, T97I, H98Q

- Kd [4]: 1.43 nM
B13: Ab37 (antibody, human IgG1, V domains shown)
VH: B4 VH with R104E, E105K, Y108H
VL: B4 VL with E55G, A60F, S94A, H98Q, V99L, W101Y

- Kd [4]: 1.33 nM
B17: Ab36 (antibody, human IgG1, V domains shown)
VH: B4 VH with R104E, E105K, Y108H
VL: B4 VL with N58H, A60F, A61P, S94A, H98Q, V99L, W101Y

- Kd [3]: 4.47 nM
- Kd [4]: 0.54 nM
B18: Ab35 (antibody, human IgG1, V domains shown)
VH: B4 VH with R104E, E105N, Y108H
VL: B4 VL with A60Y, A61S, S94A, T97I, H98Q
